This is an account of results in patent publication EP4714975A1 (Nanjing Leads Biolabs Co., Ltd., dated 2026).

For experiment [1], the target named is T1, cynomolgus monkey LILRB4 protein (ACRO Biosystems, Cat. No.: CDK-C5227) (cynomolgus monkey).
T1 construct: Bought reagent
Put plainly: BLI (ForteBio Octet RED96e), antibody captured on AHC sensor, antigen in solution, 1:1 model.

Experiment [2] deals with T2, cynomolgus monkey CD3 protein (ACRO Biosystems, Cat. No.: CDD-C52W4) (cynomolgus monkey, UniProt Q95LI5 22-117).
T2 sequence (looked up): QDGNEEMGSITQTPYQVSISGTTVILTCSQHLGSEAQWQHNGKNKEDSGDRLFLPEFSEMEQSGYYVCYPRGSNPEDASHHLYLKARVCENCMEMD
The description is as above.

The target of experiment [3] is human CD3 protein (Sino Biological, Cat. No.: CT038-H2508H) (human, UniProt P07766 23-126). Described as above.
For experiment [4], the target named is T3, human LILRB4 expressed on CHO-K1 cells (CHO-K1-huLILRB4) (human, UniProt Q8NHJ6 22-280).
T3 construct: also called engineered cells expressing human LILRB4
Put plainly: flow cytometry on CHO-K1-huLILRB4 cells. For orientation: A flow cytometer gives signals particle by particle.

The target in experiment [5] is T4, human LILRB4 endogenously expressed on tumor cells (MV-4-11, HL-60) (human, UniProt Q8NHJ6 22-448).
T4 construct: whole, on cells; also called tumor cells (MV-411) expressing human LILRB4; HL-60 cells that endogenously express human LILRB4
The experiment in a line: flow cytometry on MV-4-11 cells.

A word on the Kd: it is a measure of binding affinity in units of concentration. The term koff denotes the rate constant with which the complex falls apart. As a reminder, the kon is the rate constant with which the complex forms.

Changes are numbered by the printed parent chain.

Chain of human CD3 protein (Sino Biological, Cat. No.: CT038-H2508H) (P07766 23-126): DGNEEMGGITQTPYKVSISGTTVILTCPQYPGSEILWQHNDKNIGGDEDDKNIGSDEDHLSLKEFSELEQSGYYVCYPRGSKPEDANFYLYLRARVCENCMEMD

B1: anti-LILRB4xCD3 bispecific antibody huB1G5-CD3Fab (bispecific antibody, human IgG1, lambda, L234A L235A)
heavy 1: not shown
light: QAVVTQEPSLTVSPGGTVTLTCRSSTGAVTTSNYANWVQQKPGQAPRGLIGGTNKRAPGVPARFSGSLLGGKAALTLSGAQPEDEAEYFCALWYSNLWVFGGGTKLTVLGQPKAAPSVTLFPPSSEELQANKATLVCLISDFYPGAVTVAWKADSSPVKAGVETTTPSKQSNNKYAASSYLSLTPEQWKSHRSYSCQVTHEGSTVEKTVAPTEC
heavy 2: EVQLVESGGGLVQPGGSLRLSCAASESIFSSNVMGWYRQAPGKQRELVAAVGIQGLTKIGDSVKGRFTISRDNAKNSVYLQMNSLRAEDTAVYYCAAGAYVRFLQQSPDYWGQGTQVTVSSEPKSSDKTHTCPPCPAPEAAGGPSVFLFPPKPKDTLMISRTPEVTCVVVAVSHEDPEVKFNWYVDGVEVHNAKTKPREEQYNSTYRVVSVLTVLHQDWLNGKEYKCKVSNKALAAPIEKTISKAKGQPREPQVCTLPPSRDELTKNQVSLSCAVKGFYPSDIAVEWESNGQPENNYKTTPPVLDSDGSFFLVSKLTVDKSRWQQGNVFSCSVMHEALHNHYTQKSLSLSPGK
notes: HC1: CD3Fab heavy chain-knob; LC1: CD3Fab light chain; HC2: huB1G5-hole (VHH huB1G5-3 and Fc hole); One anti-LILRB4 VHH, one anti-CD3 Fab, knob-in-hole Fc
B1: in experiment [1], the equilibrium dissociation constant (Kd) came out at 11 nM, the off-rate constant (koff) stood at 0.00351 s⁻¹ and the kon stood at 320000 M⁻¹ s⁻¹. In experiment [2], this molecule displayed an equilibrium dissociation constant (Kd) of 6.59 nM, a koff of 0.0021 s⁻¹ and a kon of 318000 M⁻¹ s⁻¹. In experiment [3], this molecule registered a Kd of 26.3 nM, a koff of 0.00803 s⁻¹ and a kon of 305000 M⁻¹ s⁻¹.

B2: anti-LILRB4xCD3 bispecific antibody huB1G5-CD3-2VHH (bispecific antibody, human IgG1, lambda, L234A L235A)
heavy 1: not shown
light: B1 light
heavy 2: B1 heavy 2
notes: HC1: huB1G5-CD3Fab heavy chain-knob (VHH, GGGGS, hu34H1-VH, CH1, Fc knob); LC1: CD3Fab light chain; HC2: huB1G5-hole; Two anti-LILRB4 VHHs, one anti-CD3 Fab
As to B2, the values for the Kd in experiment [1], in experiment [2] and in experiment [3] were 10.6 nM, 6.92 nM and 22.6 nM, respectively. The koff worked out at 0.0023 s⁻¹ in experiment [1], 0.00191 s⁻¹ in experiment [2] and 0.00549 s⁻¹ in experiment [3]. Further, the kon in experiment [1] is 218000 M⁻¹ s⁻¹; in experiment [2], 276000 M⁻¹ s⁻¹; in experiment [3] it was 242000 M⁻¹ s⁻¹.

B3: anti-LILRB4xCD3 bispecific antibody huB1G5-ScFv-2VHH (bispecific antibody)
heavy 1: not shown
heavy 2: B1 heavy 2
notes: HC1: huB1G5-Hu34ScFv-knob (VHH, GGGGS, 23L2 ScFv, Fc knob); HC2: huB1G5-hole
As to B3, in experiment [1], the dissociation constant (Kd) was 15.3 nM, the koff turned out to be 0.00365 s⁻¹ and the association rate constant (kon) was 238000 M⁻¹ s⁻¹. In experiment [2], this molecule gave a Kd of 28.2 nM, a koff of 0.00801 s⁻¹ and a kon of 284000 M⁻¹ s⁻¹. In experiment [3], this molecule yielded a dissociation constant Kd of 35.7 nM, a koff of 0.0112 s⁻¹ and an on-rate constant (kon) of 313000 M⁻¹ s⁻¹.

B4: h193 (a fully human monoclonal antibody against LILRB4) (antibody, human IgG1, kappa, V domains shown)
VH: EVQLVESGGGLVQPGGSLRLSCAASGFSLSSSYWISWVRQAPGKGLEWIGSIDSGSVGITYYATWVKGRFTISRDNSKNTLYLQMNSLRAEDTAVYYCARHGDNWALDLWGQGTLVTVSS
VL: DLVMTQSPSTLSASVGDRVTITCQASQSINSWLAWYQQKPGKPPKLLIYKASTLASGVSSRFSGSGSGTEFTLTISSLQPDDVATYYCQHGYIRGDLDNVFGGGTKVEIKR
notes: Control antibody; also called antibody h193; control antibody h193
With B4, the binding result in experiment [4] and in experiment [5] was “binds” throughout.

B5: anti-LILRB4 chimeric antibody B1A2 (antibody, human IgG1, V domains shown)
VH: QVQLVESGGGLVQPGGSLRLSCAASGFTFSSYTMSWVRQAPGKGLEWISDINNDGGKTYYAFSVEGRFTISRDNAKNTLYLQMNSLKPEDTAVYYCVRDHQYTSRNGDRGQGTQVTVSS
notes: also called Camelid-derived anti-LILRB4 VHH B1A2-Fc
Consider B5, for which the binding result in experiment [4] is “binds”.

B6: anti-LILRB4 chimeric antibody 1H12 (antibody, human IgG1, V domains shown)
VH: EVQVVESGGGLVQAGGSLRLSCAASETIFSSNVMGWYRQAHGKQRELVAATGINGVTKYADSVKGRFTISRDNAKNTVYLQMNSLNVEDTAVYYCAAGVWRNFVMRSPDYWGQGTQVTVSS
notes: also called Camelid-derived anti-LILRB4 VHH 1H12-Fc
Regarding B6, in experiment [4], the binding result was “binds”.

B7: humanized anti-LILRB4 antibody huB1G5-1 (antibody, V domains shown)
VH: EVQLVESGGGLVQPGGSLRLSCAASESIFSSNVMGWYRQAPGKQRELVAAVGINGLTKIGDSVKGRFTISRDNAKNSVYLQMNSLRAEDTAVYYCAAGAYVRFLQNSPDYWGQGTQVTVSS
notes: Humanized VHH-Fc heavy-chain antibody without light chain; also called Humanized anti-LILRB4 VHH huB1G5-1-Fc
For the molecule B7, the binding result in experiment [5] is listed as “binds”.

B8: anti-LILRB4 chimeric antibody B1G5 (antibody, human IgG1, V domains shown)
VH: B7 VH with P14A, A40S, K43H, S77T, R86K, A87V
notes: also called Camelid-derived anti-LILRB4 VHH B1G5-Fc
Turning to B8, in experiment [4], the binding result is “binds”.

B9: humanized anti-LILRB4 antibody huB1G5-3 (antibody, V domains shown)
VH: B7 VH with N54Q, N106Q
notes: Humanized VHH-Fc heavy-chain antibody without light chain; also called Humanized anti-LILRB4 VHH huB1G5-3-Fc
As to B9, the binding result in experiment [5] is “binds”.

B10: anti-LILRB4 chimeric antibody 2A3 (antibody, human IgG1, V domains shown)
VH: EVQVVESGGGSVQTGGSLTLSCAASGRTFRSNGMGWFRQAPGKEREFVAAIRWSGRRTTYTDSVKGRFTISSDSAKNTVYLQMSSLKPEDTAVYYCAVDLLPPYGALDKYDYWGQGTQVTVSS
notes: also called Camelid-derived anti-LILRB4 VHH 2A3-Fc
Take B10: the binding result in experiment [4] is listed as “binds”.
